From patent US20090197798A1 (NATIONAL TAIWAN UNIVERSITY, published 2009) come the findings set out here.

The target in test [1] is T1, Recombinant soluble NRP1 (sNRP1) protein containing His6 and c-Myc domain tags (human, UniProt O14786-2 22-644, limits assumed).
T1 construct: Expressed in NIH-3T3 cells, purified from conditioned medium by ammonium sulfate precipitation and Ni-NTA; also called recombinant human sNRP1; recombinant NRP1; not shown: His6 and c-Myc tags
T1 sequence (looked up): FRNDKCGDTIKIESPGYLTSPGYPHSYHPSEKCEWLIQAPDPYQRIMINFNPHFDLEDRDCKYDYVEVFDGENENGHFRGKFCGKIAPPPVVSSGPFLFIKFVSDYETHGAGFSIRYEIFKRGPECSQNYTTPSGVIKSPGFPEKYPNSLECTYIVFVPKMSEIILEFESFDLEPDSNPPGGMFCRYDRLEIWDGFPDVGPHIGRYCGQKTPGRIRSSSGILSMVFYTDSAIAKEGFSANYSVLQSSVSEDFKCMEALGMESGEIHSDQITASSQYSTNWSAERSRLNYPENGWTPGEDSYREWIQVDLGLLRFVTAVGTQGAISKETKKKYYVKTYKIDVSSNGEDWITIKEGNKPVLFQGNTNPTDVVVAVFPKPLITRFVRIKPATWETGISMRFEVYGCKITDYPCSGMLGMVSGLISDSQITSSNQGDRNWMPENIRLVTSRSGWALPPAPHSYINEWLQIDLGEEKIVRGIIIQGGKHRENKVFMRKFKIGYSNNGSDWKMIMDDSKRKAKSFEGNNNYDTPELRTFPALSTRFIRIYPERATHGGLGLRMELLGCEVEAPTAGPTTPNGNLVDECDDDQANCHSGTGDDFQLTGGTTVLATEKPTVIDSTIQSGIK
The experiment in a line: SPR. On the technique in general: SPR reads the build-up and loss of mass on a sensor chip optically.

The target in test [2] is T2, VEGFR2 (UniProt P35968 20-764, limits assumed).
T2 construct: also called Flk-1/KDR
T2 sequence (P35968 20-764 limits assumed): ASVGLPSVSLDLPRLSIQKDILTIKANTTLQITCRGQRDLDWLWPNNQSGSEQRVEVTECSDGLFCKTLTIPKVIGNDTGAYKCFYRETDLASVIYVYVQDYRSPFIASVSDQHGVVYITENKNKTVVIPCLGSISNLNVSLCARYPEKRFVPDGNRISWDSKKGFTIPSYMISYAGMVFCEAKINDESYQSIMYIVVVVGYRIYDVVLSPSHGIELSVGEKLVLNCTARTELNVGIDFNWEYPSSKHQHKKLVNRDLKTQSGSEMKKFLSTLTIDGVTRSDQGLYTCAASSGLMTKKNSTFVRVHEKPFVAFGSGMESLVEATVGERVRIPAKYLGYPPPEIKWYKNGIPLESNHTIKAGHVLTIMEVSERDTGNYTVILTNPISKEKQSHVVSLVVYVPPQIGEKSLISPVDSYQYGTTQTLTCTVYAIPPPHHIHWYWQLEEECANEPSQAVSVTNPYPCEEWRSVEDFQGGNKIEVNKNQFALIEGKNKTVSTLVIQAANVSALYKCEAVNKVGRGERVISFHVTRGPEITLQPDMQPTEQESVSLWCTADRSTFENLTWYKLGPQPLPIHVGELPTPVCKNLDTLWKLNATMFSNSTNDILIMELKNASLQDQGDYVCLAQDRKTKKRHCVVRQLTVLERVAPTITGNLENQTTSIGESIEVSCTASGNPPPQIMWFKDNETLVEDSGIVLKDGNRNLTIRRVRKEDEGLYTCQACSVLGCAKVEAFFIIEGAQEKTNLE
The test can be described thus: SPR (Biacore), receptor immobilized on sensor chip.

In test [3] the target is T1, Recombinant soluble NRP1 (sNRP1) …. The experiment in a line: SPR (Biacore), NRP1 immobilized on CM5 chip, peptide injected, 25 C. As for the experimental part:
The binding kinetics of selected peptides with NRP1 were tested using the surface plasmon resonance based measuring system (Biacore AB) at 25° C. Recombinant NRP1 was immobilized on CM5 sensor chips by amine coupling at 400 response units using the amine coupling kit (Biacore) according to the manufacturer's instructions. Binding was detected in resonance units after injecting various concentrations of peptide at a flow rate of 30 μL/min. Sensograms of association and dissociation were recorded and analyzed using BIAevaluation software 3.0 (Biacore AB).
To identify whether any new signature motif can bind and inhibit NRP1-mediated invasion, mammalian cell-expressed NRP1 proteins were used as bait to screen a random cyclic 7-mer peptide library for NRP1-binding peptides. A Ph.D. C7C phage display library containing 10¹¹ random cyclic 7-amino acid peptides was applied for biopanning. After four rounds of screening, 63 clones were isolated. […] A consensus motif, -RRXR-, was found in nine clones by MULTALIN program alignment (Table 3). […] Surface plasmon resonance was used to measure the real-time association and dissociation of the binding of RRXR-containing peptides to NRP1. […] The slightly higher binding affinity of DG1 to NRP1 was due to a more favorable kₐ.

Bridges are numbered along the chain shown (N, C = ends). Where no end group is shown, it is not given here.

As usually defined, the Kd is a measure of binding affinity in units of concentration. By koff is commonly meant the first-order rate constant of dissociation. A word on the kon: it is the rate constant with which the complex forms.

B1: Human VEGF165 (ligand, UniProt P15692-4 27-191, looked up)
chain: APMAEGGGQNHHEVVKFMDVYQRSYCHPIETLVDIFQEYPDEIEYIFKPSCVPLMRCGGCCNDEGLECVPTEESNITMQIMRIKPHQGQHIGEMSFLQHNKCECRPKKDRARQENPCGPCSERRKHLFVQDPQTCKCSCKNTDSRCKARQLELNERTCRCDKPRR
notes: Bought from PeproTech; also called hVEGF
B1: the Kd in test [1] turned out to be 125 nM.

B2: cyclic peptide DG2 (CRSRRIRLC) (peptide)
peptide: CRSRRIRLC
modifications: disulfide 1-9 (inferred)
notes: Chemically synthesized cyclic 9-mer (Digitalgene, Taiwan); Its core matches phage clone 4-5
On to B2, for which the binding result in test [2] is recorded as “no binding”. For the same molecule, in test [3], the dissociation constant (Kd) turned out to be 5370 nM, the koff is 0.000663 s⁻¹ and the kon worked out at 123 M⁻¹ s⁻¹.

B3: cyclic peptide DG1 (CRRPRMLTC) (peptide)
peptide: CRRPRMLTC
modifications: disulfide 1-9 (inferred)
notes: Chemically synthesized cyclic 9-mer (Digitalgene, Taiwan); Its core matches phage clone 4-1
Turning to B3, the binding result in test [2] is listed as “no binding”. For the same molecule, in test [3], the dissociation constant (Kd) amounted to 1400 nM, the dissociation rate constant (koff) was determined as 0.00172 s⁻¹ and the kon turned out to be 1230 M⁻¹ s⁻¹.
